Columns and labels:
[1] = molecular target: Cdk2/cyclin A complex, P24941
[2] = molecular target: Cdc2/cyclin A complex, P06493
[3] = molecular target: Cdc2-F15/CyclinB1 complex, P06493
[4] = molecular target: Cdk2/cyclin E complex, P24941
[5] = molecular target: wild-type Cdc2/cyclin B1 complex, P06493
[6] = molecular target: kinase-deficient Cdc2 mutant (K-) complexed with cyclin B1, P06493
[7] = molecular target: Cdc2-A14/cyclin B1 complex, P06493
[8] = molecular target: Cdc2-AF/CyclinB1 complex, P06493
[9] = molecular target: Cdk4/cyclin D1 complex, P11802
Sequence of Cdk4/cyclin D1 complex, P11802 (P11802 whole entry, looked up, one chain of several): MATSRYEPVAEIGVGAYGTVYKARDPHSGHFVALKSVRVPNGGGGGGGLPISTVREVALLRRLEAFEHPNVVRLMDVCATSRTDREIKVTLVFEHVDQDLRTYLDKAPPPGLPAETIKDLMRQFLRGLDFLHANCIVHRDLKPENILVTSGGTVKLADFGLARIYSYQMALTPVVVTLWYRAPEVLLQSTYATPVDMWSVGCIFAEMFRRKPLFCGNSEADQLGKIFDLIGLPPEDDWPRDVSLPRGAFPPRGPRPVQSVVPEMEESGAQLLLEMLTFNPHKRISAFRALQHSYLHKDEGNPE

Sequence of wild-type Cdc2/cyclin B1 complex, P06493 (P06493 whole entry, looked up, one chain of several): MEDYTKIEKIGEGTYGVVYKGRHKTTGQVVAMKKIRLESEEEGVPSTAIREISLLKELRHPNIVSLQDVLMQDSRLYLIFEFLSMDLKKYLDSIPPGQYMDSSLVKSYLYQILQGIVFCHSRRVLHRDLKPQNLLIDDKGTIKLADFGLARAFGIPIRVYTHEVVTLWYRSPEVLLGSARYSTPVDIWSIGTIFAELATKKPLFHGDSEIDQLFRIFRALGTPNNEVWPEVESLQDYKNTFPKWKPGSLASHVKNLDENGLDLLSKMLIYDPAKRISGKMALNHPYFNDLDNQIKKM
Sequence of kinase-deficient Cdc2 mutant (K-) complexed with cyclin B1, P06493 (P06493 whole entry, looked up, change not shown, one chain of several): as the sequence (P06493 whole entry, looked up, one chain of several) above
Sequence of Cdc2-AF/CyclinB1 complex, P06493 (P06493 whole entry, looked up, one chain of several): as above
Sequence of Cdc2-A14/cyclin B1 complex, P06493 (P06493 whole entry, looked up, one chain of several): as above
Sequence of Cdc2/cyclin A complex, P06493 (P06493 whole entry, looked up, one chain of several): as above
Sequence of Cdc2-F15/CyclinB1 complex, P06493 (P06493 whole entry, looked up, one chain of several): as above

B1: Cell Growth Regulatory Protein, truncated hybrid protein (residues 1-9 deleted) with N-terminal Glu-Glu tag, expressed in Sf9 cells (protein)
chain: MEYMPMEGTRPEMPMPTEGTPPPLSGTPIPVPAYFRHAEPGFSLKRPRGLSRSLPPPPPAKGSIPISRLFPPRTPGWHQLQPRRVSFRGEASETLQSPGYDPSRPESFFQQSFQRLSRLGHGSYGEVFKVRSKEDGRLYAVKRSMSPFRGPKDRARKLAEVGSHEKVGQHPCCVRLEQAWEEGGILYLQTELCGPSLQQHCEAWGASLPEAQVWGYLRDTLLALAHLHSQGLVHLDVKPANIFLGPRGRCKLGDFGLLVELGTAGAGEVQEGDPRYMAPELLQGSYGTAADVFSLGLTILEVACNMELPHGGEGWQQLRQGYLPPEFTAGLSSELRSVLVMMLEPDPKLRATAEALLALPVLRQPRAWGVLWCMAAEALSRGWALWQALLALLCWLWHGLAHPASWLQPLGPPATPPDSPPCSLLLDSSFSSNWDDDSLGPSLSPEAVLARTVGSTSTPRSRCTPRDALDLSDINSEPPRGSFPSFEPRNLLSMFEDTLDPT
[1]
  32P-labeling in a kinase reaction with purified proteins: Cell Growth Regulatory Protein failed to phosphorylate Cdk2 that was complexed with either cyclin A or cyclin E
  histone H1 kinase activity in mixed Sf9 lysates, wild-type Cdk2 against Cdk2-AF: an equivalent amount of histone H1 kinase activity was present in wild-type Cdk2 and Cdk2-AF lysates that had been mixed with either cyclin A or cyclin E lysates in the presence of Cell Growth Regulatory Protein
Monomeric Cdc2, P06493
  32P-labeling in a kinase reaction with monomeric Cdc2 as substrate: Cell Growth Regulatory Protein did not phosphorylate monomeric Cdc2
[2]
  histone H1 kinase activity in mixed Sf9 lysates: greatly reduced histone H1 kinase activity compared to a mock-treated or Cdc2-AF control lysate
[3]
  histone H1 kinase activity (Cdc2 kinase activation) in mixed Sf9 lysates: such lysates also inhibited both Cdc2-A14 and Cdc2-F15 activation
[4]
  32P-labeling in a kinase reaction with purified proteins: Cell Growth Regulatory Protein failed to phosphorylate Cdk2 that was complexed with either cyclin A or cyclin E
  histone H1 kinase activity in mixed Sf9 lysates, wild-type Cdk2 against Cdk2-AF: an equivalent amount of histone H1 kinase activity was present in wild-type Cdk2 and Cdk2-AF lysates that had been mixed with either cyclin A or cyclin E lysates in the presence of Cell Growth Regulatory Protein
[5]
  32P-labeling in a kinase reaction with affinity purified proteins, SDS-PAGE: both purified Cell Growth Regulatory Protein and Wee1 kinases were capable of phosphorylating wild-type Cdc2 as well as a kinase-deficient Cdc2 mutant (K-), each of which was complexed with cyclin B1
  32P-labeling in a kinase reaction with the Cdc2/cyclin B1 complex reconstituted from monomers: reconstitution of the Cdc2/cyclin B1 complex, by pre-incubating monomeric Cdc2 with monomeric cyclin B1, enabled Cell Growth Regulatory Protein to phosphorylate Cdc2
  histone H1 kinase activity (Cdc2 kinase activation) in mixed Sf9 lysates: a dramatic reduction in Cdc2 kinase activation was observed, similar to that observed for Wee1
  immunoblotting of mixed lysates with phosphotyrosine antibodies: showed that Cdc2 was phosphoryalted on Tyrosine 15 to some extent
[6]
  32P-labeling in a kinase reaction with affinity purified proteins, SDS-PAGE: both purified Cell Growth Regulatory Protein and Wee1 kinases were capable of phosphorylating wild-type Cdc2 as well as a kinase-deficient Cdc2 mutant (K-), each of which was complexed with cyclin B1
  phosphoamino acid analysis of 32P-labeled Cdc2: phosphorylation occurred only on threonine residues
[7]
  histone H1 kinase activity (Cdc2 kinase activation) in mixed Sf9 lysates: such lysates also inhibited both Cdc2-A14 and Cdc2-F15 activation; Cdc2-A14 lysates consistently retain some histone H1 kinase activity
[8]
  32P-labeling in a kinase reaction with affinity purified proteins, SDS-PAGE: the Cdc2-AF mutant was not phosphorylated by Cell Growth Regulatory Protein or Wee1
[9]
  32P-labeling in a kinase reaction with purified proteins: neither Cell Growth Regulatory Protein nor Wee1 phosphorylated the Cdk4 subunit

— US6558918
